Reference: paper PMC9692665 (2022)

Target: Echovirus 3 (E3) mature full (F-) particle, genotype HNWY-01 strain (Echovirus 3 (genotype HNWY-01 strain))
Experiment: SPR

B1: monoclonal antibody 6D10 IgG (antibody, V domains shown)
VH: EVQLQQSGPELARPWASVKISCQAFYTFSNYGMQWVKQSPGQGLEWIGPFYPGNADTSYNQKFKGKATLTADKSSSTAYMQFSSLTSEDSAVYYCARVVATTDFDYWGQGTTVTVSS
VL: not shown
  koff: 5.1e-05 s⁻¹
